Measurements taken from article PMC4717663.

Molecular target: soluble αVβ3 headpiece (human) (UniProt P06756)
Test: fluorescence polarisation

Substance: nonapeptide containing RGD from pro-TGF-β3
- fold-lower affinity than for αVβ6: 1000 fold
